Here are results for four substances from PMC4722452.

pKd: −log10 of the molar value.

For one assay, the target named is Sos^CatW729E (UniProt Q07889). Kind of assay: other fluorescence titration; quenching of the intrinsic Trp fluorescence of Sos (10 μM) on adding Ras (1-50 μM) in Hepes buffer; excitation 295 nm, emission 336 nm; single-site quadratic fit; overall apparent (macroscopic) Kd.
Assay [1] concerns the target Sos^Cat (Son of Sevenless, residues 563-1049) (UniProt Q07889). The assay is described as above.
Assay [2] shares this target. Kind of assay: NMR titration; 1H,13C HMQC of [13C-methyl-Met,Ile]Sos^Cat or Sos^CatW729E (60 μM) with unlabelled Ras added at Ras:Sos 0.5:1 to 4:1; 298 K; Met methyl reporter signals M726 (allosteric), M824 (catalytic), M714 (between).

In the case of “H-Ras·GDP (from UniProt P01112 1-166) (domain or fragment)”, the pKd with Sos^CatW729E is 4.17.

As for “H-Ras·GTPγS (from UniProt P01112 1-166) (domain or fragment)”, the pKd with Sos^CatW729E was 4.55.

As to “K-RasG12V·GTPγS (from UniProt P01116 1-166) (domain or fragment)”, the pKd in assay [1] was 4.51.

In the case of “K-Ras·GTPγS (from UniProt P01116 1-166) (domain or fragment)”, the apparent microscopic Kd, allosteric site (from the M726 signal shift) in assay [2] was found to be 2 µM. Further, in assay [1], the pKd was 5.00.

As usually defined, the pKd is −log10 of the Kd, conventionally taken in molar units.
